Literature values as cited in paper PMC12378658.
pKd: −log10 of the molar value.

Experiments:
[1] = molecular target: TSLP:TSLPR complex (Homo sapiens) (UniProt Q969D9)
TSLPR (Homo sapiens) = TSLPR (Homo sapiens) (UniProt Q9HC73)
UniProt Q9HC73, sequence (Q9HC73 23-231): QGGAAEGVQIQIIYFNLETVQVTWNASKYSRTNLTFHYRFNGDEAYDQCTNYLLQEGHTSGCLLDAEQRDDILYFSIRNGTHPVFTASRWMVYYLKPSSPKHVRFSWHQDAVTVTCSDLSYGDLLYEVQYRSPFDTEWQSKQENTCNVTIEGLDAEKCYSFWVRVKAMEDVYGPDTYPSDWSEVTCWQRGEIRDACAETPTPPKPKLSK

Substance	pKd [1]	pKd (TSLPR (Homo sapiens))
IL-7Rα (from UniProt P16871)	7.54	–
TSLP (from UniProt Q969D9)	–	7.49
